Laboratory results reported in patent publication US20260209386A1 (MYTHIC THERAPEUTICS, published 2026).

T1: Recombinant human CCK4/PTK7 Protein (His Tag), Sino Biological 19399-H08H (human, UniProt Q13308 31-704)
T1 construct: bought protein; not shown: His tag
T1 sequence: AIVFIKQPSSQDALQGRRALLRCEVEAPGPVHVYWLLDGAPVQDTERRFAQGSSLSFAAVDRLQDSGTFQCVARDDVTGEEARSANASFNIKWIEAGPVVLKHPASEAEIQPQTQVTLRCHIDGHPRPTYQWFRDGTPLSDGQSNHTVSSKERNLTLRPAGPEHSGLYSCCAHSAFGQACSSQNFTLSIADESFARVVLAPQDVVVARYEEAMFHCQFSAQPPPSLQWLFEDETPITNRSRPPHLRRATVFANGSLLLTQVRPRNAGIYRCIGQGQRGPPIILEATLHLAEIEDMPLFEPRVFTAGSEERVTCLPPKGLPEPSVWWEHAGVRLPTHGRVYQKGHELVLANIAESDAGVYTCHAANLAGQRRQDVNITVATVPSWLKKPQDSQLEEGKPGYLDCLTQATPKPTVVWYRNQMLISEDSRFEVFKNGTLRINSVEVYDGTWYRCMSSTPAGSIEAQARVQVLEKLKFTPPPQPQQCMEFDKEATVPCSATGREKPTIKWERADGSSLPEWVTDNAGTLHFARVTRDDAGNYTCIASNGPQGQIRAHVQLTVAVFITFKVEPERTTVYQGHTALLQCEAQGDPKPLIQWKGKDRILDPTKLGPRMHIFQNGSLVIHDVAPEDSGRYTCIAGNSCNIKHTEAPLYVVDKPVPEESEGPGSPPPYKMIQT

T2: Human PTK7 Protein, His Tag, Acro Biosystems (human, UniProt Q13308 31-704)
T2 construct: Bought recombinant protein; also called CCK4; not shown: His tag
T2 sequence: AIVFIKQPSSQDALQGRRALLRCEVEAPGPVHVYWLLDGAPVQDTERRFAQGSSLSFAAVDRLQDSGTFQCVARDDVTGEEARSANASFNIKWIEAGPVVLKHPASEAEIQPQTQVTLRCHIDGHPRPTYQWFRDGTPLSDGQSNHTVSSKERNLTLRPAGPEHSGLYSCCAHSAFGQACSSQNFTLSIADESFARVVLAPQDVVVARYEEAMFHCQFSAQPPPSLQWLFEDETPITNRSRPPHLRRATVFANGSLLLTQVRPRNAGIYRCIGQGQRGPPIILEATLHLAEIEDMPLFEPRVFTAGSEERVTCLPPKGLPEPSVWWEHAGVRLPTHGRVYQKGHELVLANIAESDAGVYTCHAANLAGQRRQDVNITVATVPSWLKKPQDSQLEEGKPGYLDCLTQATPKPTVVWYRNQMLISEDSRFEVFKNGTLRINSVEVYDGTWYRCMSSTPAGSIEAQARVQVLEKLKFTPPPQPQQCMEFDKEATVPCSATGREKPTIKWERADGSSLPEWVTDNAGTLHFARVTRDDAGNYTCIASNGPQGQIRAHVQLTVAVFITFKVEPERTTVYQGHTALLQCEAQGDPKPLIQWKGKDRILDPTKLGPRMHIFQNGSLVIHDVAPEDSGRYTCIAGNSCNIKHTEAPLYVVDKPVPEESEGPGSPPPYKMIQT


Target: T1, Recombinant human CCK4/PTK7 Protein …
Experiment: BLI, antibody on anti-human Fc sensor

Row | Binder | binding result
1 | MYT7989 (antibody, V domains shown, IgG) VH: EVQLVQSGGGLVHPGGSLRLSCAGSGFTFSTYLMYWVRQAPGKTLEWVSAIGSGGDTYYADSVKGRFTISRDNAKNSLYLQMNSLRAEDMAVYYCARGHGYWGQGTLVTVSS VL: not shown | no binding (tested: 50 nM PTK7)
2 | MYT8003 (antibody, V domains shown, IgG) VH: EVQLVQSGGGLVHPGGSLRLSCAGSGFTFSTYLMYWVRQAPGKTLEWVSAIGSGGDTYYADSVKGRFTISRDNAKNSLYLQMNSLRAEDMAVYYCARGLGYWGQGTLVTVSS VL: not shown | no binding (tested: 50 nM PTK7)
3 | MYT8016 (antibody, V domains shown, IgG) VH: EVQLVQSGGGLVHPGGSLRLSCAGSGFTFSTYLMYWVRQAPGKTLEWVSAIGSGGDTYYADSVKGRFTISRDNAKNSLYLQMNSLRAEDMAVYYCARGLGYWGQGTLVTVSS VL: not shown | no binding (tested: 50 nM PTK7)
4 | MYT8017 (antibody, V domains shown, IgG) VH: EVQLVQSGGGLVHPGGSLRLSCAGSGFTFSTYLMYWVRQAPGKTLEWVSAIGSGGDTYYADSVKGRFTISRDNAKNSLYLQMNSLRAEDMAVYYCARGLGYWGQGTLVTVSS VL: not shown | no binding (tested: 50 nM PTK7)
5 | MYT8019 (antibody, V domains shown, IgG) VH: EVQLVQSGGGLVHPGGSLRLSCAGSGFTFSTYLMYWVRQAPGKTLEWVSAIGSGGDTYYADSVKGRFTISRDNAKNSLYLQMNSLRAEDMAVYYCARGLGYWGQGTLVTVSS VL: not shown | no binding (tested: 50 nM PTK7)

Target: T2, Human PTK7 Protein, His Tag, Acro …
Experiment: BLI, anti-human Fc capture, 50 nM PTK7; 1 = pH dependent binding relative to parent

Row | Binder | binding result
6 | MYT11258 (antibody, V domains shown, MYT9792 variant, His at VH 30 (H1 05)) VH: EVQLVESGGGLVQPGGSLRLSCTASGIDLHRYSMGWVRQAPGKGLEWVGIISYGGSTYYASWAKGRFTISRDTSKNTVYLQMNSLRAEDTAVYFCARVGYPGYSGYGYAFDAFDPWGQGTLVTVSS VL: EIVMTQSPSTLSASVGDRVIITCQSSKSVYNDNWLSWYQQKPGKAPKLLIYGASTLASGVPSRFSGSGSGAEFTLTISSLQPDDFATYYCAGGYSSSSDNGFGQGTKLTVL | binds
7 | MYT11263 (antibody, V domains shown, MYT9792 variant, His at VH 35 (H1 10)) VH: EVQLVESGGGLVQPGGSLRLSCTASGIDLSRYSMHWVRQAPGKGLEWVGIISYGGSTYYASWAKGRFTISRDTSKNTVYLQMNSLRAEDTAVYFCARVGYPGYSGYGYAFDAFDPWGQGTLVTVSS VL: EIVMTQSPSTLSASVGDRVIITCQSSKSVYNDNWLSWYQQKPGKAPKLLIYGASTLASGVPSRFSGSGSGAEFTLTISSLQPDDFATYYCAGGYSSSSDNGFGQGTKLTVL | binds
8 | MYT11267 (antibody, V domains shown, MYT9792 variant, His at VH 53 (H2 04)) VH: EVQLVESGGGLVQPGGSLRLSCTASGIDLSRYSMGWVRQAPGKGLEWVGIISHGGSTYYASWAKGRFTISRDTSKNTVYLQMNSLRAEDTAVYFCARVGYPGYSGYGYAFDAFDPWGQGTLVTVSS VL: EIVMTQSPSTLSASVGDRVIITCQSSKSVYNDNWLSWYQQKPGKAPKLLIYGASTLASGVPSRFSGSGSGAEFTLTISSLQPDDFATYYCAGGYSSSSDNGFGQGTKLTVL | binds
9 | MYT11272 (antibody, V domains shown, MYT9792 variant, His at VH 58 (H2 09)) VH: EVQLVESGGGLVQPGGSLRLSCTASGIDLSRYSMGWVRQAPGKGLEWVGIISYGGSTHYASWAKGRFTISRDTSKNTVYLQMNSLRAEDTAVYFCARVGYPGYSGYGYAFDAFDPWGQGTLVTVSS VL: EIVMTQSPSTLSASVGDRVIITCQSSKSVYNDNWLSWYQQKPGKAPKLLIYGASTLASGVPSRFSGSGSGAEFTLTISSLQPDDFATYYCAGGYSSSSDNGFGQGTKLTVL | binds
10 | MYT11279 (antibody, V domains shown, MYT9792 variant, His at VH 65 (H2 16)) VH: EVQLVESGGGLVQPGGSLRLSCTASGIDLSRYSMGWVRQAPGKGLEWVGIISYGGSTYYASWAKHRFTISRDTSKNTVYLQMNSLRAEDTAVYFCARVGYPGYSGYGYAFDAFDPWGQGTLVTVSS VL: EIVMTQSPSTLSASVGDRVIITCQSSKSVYNDNWLSWYQQKPGKAPKLLIYGASTLASGVPSRFSGSGSGAEFTLTISSLQPDDFATYYCAGGYSSSSDNGFGQGTKLTVL | binds
11 | MYT11285 (antibody, V domains shown, MYT9792 variant, His at VH 101 (H3 06)) VH: EVQLVESGGGLVQPGGSLRLSCTASGIDLSRYSMGWVRQAPGKGLEWVGIISYGGSTYYASWAKGRFTISRDTSKNTVYLQMNSLRAEDTAVYFCARVGYHGYSGYGYAFDAFDPWGQGTLVTVSS VL: EIVMTQSPSTLSASVGDRVIITCQSSKSVYNDNWLSWYQQKPGKAPKLLIYGASTLASGVPSRFSGSGSGAEFTLTISSLQPDDFATYYCAGGYSSSSDNGFGQGTKLTVL | binds
